Article PMC6044767
Values joined by “and” are separate entries in the source; they are usually repeats but may differ in a detail not shown here. Identical values can stand only once. Each block holds one molecule with its values, some of them ahead of it.

Tests used:
[1] = biological target: native Escherichia coli L-asparaginase II (Kidrolase) (E. coli) (UniProt P00805)
[2] = biological target: native Escherichia coli L-asparaginase II (Kidrolase) (E. coli) (UniProt P00805); assay: native gel or EMSA
[3] = biological target: native Escherichia coli L-asparaginase II (Kidrolase) (E. coli) (UniProt P00805); assay: native gel or EMSA; remark: listed apart in the source
[4] = biological target: native Escherichia coli L-asparaginase II (Kidrolase) (E. coli) (UniProt P00805); assay: SEC
[5] = biological target: native Escherichia coli L-asparaginase II (Kidrolase) (E. coli) (UniProt P00805); remark: listed apart in the source
[6] = biological target: T1, N21-EcAII (E. coli K12), P00805; assay: SEC; settings: remark: other sources report otherwise
T1 chain: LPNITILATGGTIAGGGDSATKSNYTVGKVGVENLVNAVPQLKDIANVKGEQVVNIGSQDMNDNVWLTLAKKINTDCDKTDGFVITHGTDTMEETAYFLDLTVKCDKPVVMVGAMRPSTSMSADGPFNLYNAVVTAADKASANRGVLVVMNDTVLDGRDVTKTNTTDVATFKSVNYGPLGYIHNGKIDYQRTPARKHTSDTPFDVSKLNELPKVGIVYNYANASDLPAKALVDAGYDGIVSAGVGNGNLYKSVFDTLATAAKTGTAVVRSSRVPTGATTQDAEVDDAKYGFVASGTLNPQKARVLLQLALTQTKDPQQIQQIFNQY

[7] = biological target: T1, N21-EcAII (E. coli K12), P00805; assay: SEC; settings: remark: other sources report otherwise
[8] = biological target: T2, N26-EcAII (E. coli K12), P00805; assay: SEC; settings: remark: other sources report otherwise
T2 chain: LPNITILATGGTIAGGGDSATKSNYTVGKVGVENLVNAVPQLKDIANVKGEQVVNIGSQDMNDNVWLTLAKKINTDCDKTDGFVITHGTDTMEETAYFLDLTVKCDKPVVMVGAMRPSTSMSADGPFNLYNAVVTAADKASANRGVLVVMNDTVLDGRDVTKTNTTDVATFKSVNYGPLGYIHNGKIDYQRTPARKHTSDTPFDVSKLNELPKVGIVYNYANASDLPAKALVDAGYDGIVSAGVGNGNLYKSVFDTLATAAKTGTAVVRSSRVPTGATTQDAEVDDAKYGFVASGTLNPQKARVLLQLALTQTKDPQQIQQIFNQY

[9] = biological target: T2, N26-EcAII (E. coli K12), P00805; assay: native gel or EMSA; settings: remark: other sources report otherwise
[10] = biological target: T2, N26-EcAII (E. coli K12), P00805; assay: SEC; settings: remark: other sources report otherwise
[11] = biological target: T3, C8-EcAII (E. coli K12), P00805; assay: SEC; settings: remark: other sources report otherwise
T3 chain: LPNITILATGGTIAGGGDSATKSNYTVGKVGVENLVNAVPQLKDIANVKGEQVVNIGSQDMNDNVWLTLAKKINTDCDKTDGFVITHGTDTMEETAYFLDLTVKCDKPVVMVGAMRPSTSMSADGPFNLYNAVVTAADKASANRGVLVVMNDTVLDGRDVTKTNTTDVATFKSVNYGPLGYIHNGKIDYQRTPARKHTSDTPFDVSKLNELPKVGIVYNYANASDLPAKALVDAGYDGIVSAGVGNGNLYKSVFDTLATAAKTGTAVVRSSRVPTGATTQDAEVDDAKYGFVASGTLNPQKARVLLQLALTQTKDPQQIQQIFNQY

[12] = biological target: T3, C8-EcAII (E. coli K12), P00805; assay: native gel or EMSA; settings: remark: other sources report otherwise
[13] = biological target: T3, C8-EcAII (E. coli K12), P00805; assay: SEC; settings: remark: other sources report otherwise

Molecule: native Escherichia coli L-asparaginase II (Kidrolase) (from UniProt P00805 23-348) (enzyme)
- specific activity in solution (GDH-coupled assay) [1]: 118 U mg^–1
- stoichiometry N [2]: 4 and 8 and 12
- stoichiometry N [3]: 8 and 12 and 4
- stoichiometry N [4]: 4 and 8 and 12
- specific activity of EcAII immobilized on gold chips (GDH-coupled assay) [5]: 310 U mg^–1

- stoichiometry N [6]: 8 and 12 and 4
- stoichiometry N [7]: 4
B1: N21-EcAII, P00805 23-348 (enzyme)
chain: LPNITILATGGTIAGGGDSATKSNYTVGKVGVENLVNAVPQLKDIANVKGEQVVNIGSQDMNDNVWLTLAKKINTDCDKTDGFVITHGTDTMEETAYFLDLTVKCDKPVVMVGAMRPSTSMSADGPFNLYNAVVTAADKASANRGVLVVMNDTVLDGRDVTKTNTTDVATFKSVNYGPLGYIHNGKIDYQRTPARKHTSDTPFDVSKLNELPKVGIVYNYANASDLPAKALVDAGYDGIVSAGVGNGNLYKSVFDTLATAAKTGTAVVRSSRVPTGATTQDAEVDDAKYGFVASGTLNPQKARVLLQLALTQTKDPQQIQQIFNQY

- stoichiometry N [8]: 4
- stoichiometry N [9]: 4
- stoichiometry N [10]: 4
B2: N26-EcAII, P00805 23-348 (enzyme)
chain: LPNITILATGGTIAGGGDSATKSNYTVGKVGVENLVNAVPQLKDIANVKGEQVVNIGSQDMNDNVWLTLAKKINTDCDKTDGFVITHGTDTMEETAYFLDLTVKCDKPVVMVGAMRPSTSMSADGPFNLYNAVVTAADKASANRGVLVVMNDTVLDGRDVTKTNTTDVATFKSVNYGPLGYIHNGKIDYQRTPARKHTSDTPFDVSKLNELPKVGIVYNYANASDLPAKALVDAGYDGIVSAGVGNGNLYKSVFDTLATAAKTGTAVVRSSRVPTGATTQDAEVDDAKYGFVASGTLNPQKARVLLQLALTQTKDPQQIQQIFNQY

- stoichiometry N [11]: 4
- percent dissociated into monomer [12]: 50%
- stoichiometry N [12]: 4 and 8
- stoichiometry N [13]: 4
B3: C8-EcAII, P00805 23-348 (enzyme)
chain: LPNITILATGGTIAGGGDSATKSNYTVGKVGVENLVNAVPQLKDIANVKGEQVVNIGSQDMNDNVWLTLAKKINTDCDKTDGFVITHGTDTMEETAYFLDLTVKCDKPVVMVGAMRPSTSMSADGPFNLYNAVVTAADKASANRGVLVVMNDTVLDGRDVTKTNTTDVATFKSVNYGPLGYIHNGKIDYQRTPARKHTSDTPFDVSKLNELPKVGIVYNYANASDLPAKALVDAGYDGIVSAGVGNGNLYKSVFDTLATAAKTGTAVVRSSRVPTGATTQDAEVDDAKYGFVASGTLNPQKARVLLQLALTQTKDPQQIQQIFNQY
